Measured values: article PMC4602278

Biological target: Litopenaeus vannamei IRF, endogenous in shrimp tissues (Litopenaeus vannamei (endogenous in intestines and hepatopancreas))
Assay: native gel or EMSA; native-PAGE of shrimp tissue samples (intestines, hepatopancreas; hemocytes as negative control) with western-blot, beta-actin as control; also hepatopancreas at times after WSSV or poly (I:C) treatment

Litopenaeus vannamei IRF, endogenous in shrimp tissues (natural protein)
stoichiometry N: 2
